Legend:
Assay in all cases: IEDB peptide-MHC binding, purified MHC/competitive/radioactivity; ≥ and ≤ were set here for values at or beyond the usual limits of such assays
Conditions in all cases: source organism: Homo sapiens
HLA-A*03:01 = target: HLA-A*03:01
HLA-A*11:01 = target: HLA-A*11:01
HLA-A*30:01 = target: HLA-A*30:01
HLA-A*31:01 = target: HLA-A*31:01
HLA-A*33:01 = target: HLA-A*33:01
HLA-A*68:01 = target: HLA-A*68:01

Sequence | IC50 (HLA-A*03:01) | IC50 (HLA-A*11:01) | IC50 (HLA-A*30:01) | IC50 (HLA-A*31:01) | IC50 (HLA-A*33:01) | IC50 (HLA-A*68:01)
EVYEGVWKK | 1.07 µM | 0.063 µM | ≥ 70 µM | ≥ 70 µM | 0.06 µM | 0.01 µM
KLGGGQYGE | 2.28 µM | 2.28 µM | 10.1 µM | 9.87 µM | 63.6 µM | 4.21 µM

— the Immune Epitope Database (IEDB)
